Publication PMC12229972 (EJNMMI Radiopharmacy and Chemistry, 2025)

Columns and labels:
[1] = dynamic PET/CT imaging after lumbar infusion; type: in vivo, Sprague–Dawley rats; conditions: rats
[2] = dynamic PET/CT imaging after cisterna magna infusion; type: in vivo, Sprague–Dawley rats; conditions: rats

Substance: Al[^18F]F-7: aluminum [18F]fluoride restrained complexing agent (RESCA) conjugated rat serum albumin (RSA) reference tracer
- Cmax, intracranial space (ICS) [1]: 0.27 %ID
- tmax, lumbar vertebra L1-L2 ([1]; median(range)): 25(35) min
- Cmax (maximum SUV), cervical and thoracic (T1-T2) vertebra (spinal canal) ([2]; geometric mean (CV), listed as 7): 4.5(17%) SUV
- tmax, cisterna magna ([2]; median(range)): 20(0) min
